This is an account of results in patent US20200062804A1 (ADRX, published 2020).

T1: Nat1 (LTIITLE) (also: TFA salt)
T1 peptide: LTIITLE

Non-standard residues stand in square brackets, D forms with d. No end group written: not given here.

For the first assay, the target named is T1, Nat1 (LTIITLE). Description: cell-based or functional assay.
[dY][dQ][dW][dY][dR][dW][dQ] [yqwyrwq]: the “IC50, Thiofiavin T aggregation assay” value is 194 nM.

For the molecule [dF][dW][dR][dW][dH][dR][dA] [fwrwhra], the “IC50, Thiofiavin T aggregation assay” value was 228 nM.

[dK][dF][dR][dF][dY][dH][dR] [kfrfyhr]: the “IC50, Thiofiavin T aggregation assay” value amounted to 32 nM.

In the case of LAIKYHR, the “IC50, Thiofiavin T aggregation assay” value stood at 220 nM.

Consider [dQ][dQ][dR][dY][dY][dW][dR] [qqryywr], for which the “IC50, Thiofiavin T aggregation assay” value is 95 nM.

Regarding [dR][dW][dM][dY][dW][dQ][dR] [rwmywqr], the “IC50, Thiofiavin T aggregation assay” value was 216 nM.

For the molecule [dR][dF][dY][dY][dH][dR][dR] [rfyyhrr], the “IC50, Thiofiavin T aggregation assay” value stood at 76 nM.

For the molecule WTRITLK, the “IC50, Thiofiavin T aggregation assay” value is 222 nM.

The target of another assay is Protein in Human Serum. The experiment in a line: protein binding in human serum; method not described.
rrrrrrrrrrpihlriwrn (peptide): the % Protein Binding in Human Serum worked out at 95%.

rrrrrrrrrrpiyqwyrwq (peptide) displayed a % Protein Binding in Human Serum of 99%.

In turn, rrrrrrrrrrpikfrfyhr (peptide) yielded a % Protein Binding in Human Serum of 86%.

Take rrrrrrrrrgggyqwyrwq (peptide): the % Protein Binding in Human Serum is 89%.

On to rrrrrrrrrrpikwrwyrr (peptide), for which the % Protein Binding in Human Serum was 94%.

Molecule rrrrrrrrrrpirihyfrr (peptide) returned a % Protein Binding in Human Serum of 93%.

rrrrrrrrrrpihqrqyqr (peptide) registered a % Protein Binding in Human Serum of 12%.

The molecule RRRRRRRRRRPIIRIRHYR gave a % Protein Binding in Human Serum of 84%.

[dY][dQ][dW][dY][dR][dW][dQ] [yqwyrwq]: the % Protein Binding in Human Serum is 98%.

Regarding PRRRRRRRRRRPITRIRFYRP, the % Protein Binding in Human Serum was found to be 89%.

The molecule [dK][dF][dR][dF][dY][dH][dR] [kfrfyhr] yielded a % Protein Binding in Human Serum of 81%.

Molecule [dQ][dQ][dR][dY][dY][dW][dR] [qqryywr] displayed a % Protein Binding in Human Serum of 82%.

Regarding PRRRRRRRRRRPIIRIRHYRP, the % Protein Binding in Human Serum is 89%.

Molecule [dR][dF][dY][dY][dH][dR][dR] [rfyyhrr] yielded a % Protein Binding in Human Serum of 91%.

The molecule RRRRRRRRRRPIIRIRHYRP returned a % Protein Binding in Human Serum of 81%.

Take RRRRRRRRRRPILTRITLE: the % Protein Binding in Human Serum is 66%.

Molecule PRRRRRRRRRRPILRIRYWKP gave a % Protein Binding in Human Serum of 98%.

In turn, PRRRRRRRRRRPIWTIKLWHP returned a % Protein Binding in Human Serum of 100%.

Take RRRRRRRRRRPIIRIRHYP: the % Protein Binding in Human Serum came out at 83%.
